The values that follow come from patent US20260184786A1 (LINDIS BIOTECH, published 2026).

The target of experiment [1] is T1, CD3 on Jurkat cells (human, UniProt P07766;P09693;P04234).
T1 construct: on the surface of Jurkat cells
The experiment in a line: flow cytometry on Jurkat cells, FITC-labelled secondary antibody, MFI (Example 3). On the procedure: The Jurkat cells were adjusted to a concentration of 4×10⁶ cells/ml with PBS, and the cell suspension (50 μl/well) and different concentrations of CD3 antibodies (50 μl/well) were sequentially added to a U-shaped 96-well plate and mixed evenly to achieve final antibody concentrations of […]. The cells were incubated in a 4° C. refrigerator for 1.5 h. After the incubation was completed, the plate was centrifuged (300 g, 5 min), then the supernatant was removed and the residue was washed with PBS (200 μl/well). Finally, FITC-conjugated AffiniPure Rat Anti-Mouse IgG (H+L) was added for staining, and flow cytometry was used for analysis and quantification.
(Flow cytometry measures light scatter and fluorescence of single cells or particles in a stream.)

The target of experiment [2] is T2, Human CD3E & CD3G (human, UniProt P07766;P09693).
T2 construct: recombinant, tag given as Lama Fc; also called CD3E & CD3G heterodimer protein; CD3E/G antigen
T2 sequence (P07766 23-126 limits assumed, chain 1 of 2): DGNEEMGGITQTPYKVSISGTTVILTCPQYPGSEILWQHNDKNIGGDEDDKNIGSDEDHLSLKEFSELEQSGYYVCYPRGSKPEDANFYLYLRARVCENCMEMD
T2 sequence (P09693 23-116 limits assumed, chain 2 of 2): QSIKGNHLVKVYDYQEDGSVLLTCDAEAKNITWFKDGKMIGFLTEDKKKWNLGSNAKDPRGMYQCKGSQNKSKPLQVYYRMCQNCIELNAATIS
The experiment in a line: ELISA on plate-coated CD3E & CD3G heterodimer protein (Example 2); 95% CI 25,03 to 66,53 ng/ml, R squared 0.9718. The procedure:
(§1) An ELISA plate was coated with CD3E & CD3G heterodimer protein (as shown in FIG. 3) at 100 ng/well at 4° C. overnight. The next day, the plate was blocked with a blocking solution (3% BSA in 1×PBS) for 2 h, washed with a washing solution and drained. The plate was then added with gradiently diluted humanized CD3 antibodies, and incubated at 37° C. for 1 h. The reaction solution was discarded, and the plate was washed and drained. The plate was then added with diluted detection antibody (THE™ His Tag Antibody [HRP]) at 100 μL per well and incubated at 37° C. for 1 h. The detection antibody was discarded, and the plate was washed and drained. The plate was then added with a single-component TMB color developing solution returned to room temperature at 100 μL per well, and the color development was performed at 37° C. for 10 min. After the color was developed, a stop solution was added to the plate at 100 μL per well to terminate the color development reaction. The absorbance was read at 450 nm using a microplate reader.
For orientation: ELISA stands for enzyme-linked immunosorbent assay.

Experiment [3] has as its target T2, Human CD3E & CD3G. The experiment in a line: ELISA, plate coated with CD3E & CD3G heterodimer protein (100 ng/well), anti-His tag HRP detection (Example 2). On the procedure: as §1
Experiment [4] addresses T2, Human CD3E & CD3G. The experiment in a line: ELISA on plate-coated CD3E & CD3G heterodimer protein (Example 2); 95% CI 23,44 to 39,91 ng/ml, R squared 0.9911. The procedure: as §1
Experiment [5] has as its target T2, Human CD3E & CD3G. The experiment is described as follows: ELISA on plate-coated CD3E & CD3G heterodimer protein (Example 2); 95% CI 8,947 to 24,24 ng/ml, R squared 0.9587. On the procedure: as §1
In experiment [6] the target is T2, Human CD3E & CD3G. The experiment is described as follows: ELISA on plate-coated CD3E & CD3G heterodimer protein (Example 2); 95% CI 20,94 to 55,12 ng/ml, R squared 0.9704. On the procedure:
as §1

Residue numbers refer to the chain shown, from its start.

T1 sequence (P07766 23-207, chain 1 of 3): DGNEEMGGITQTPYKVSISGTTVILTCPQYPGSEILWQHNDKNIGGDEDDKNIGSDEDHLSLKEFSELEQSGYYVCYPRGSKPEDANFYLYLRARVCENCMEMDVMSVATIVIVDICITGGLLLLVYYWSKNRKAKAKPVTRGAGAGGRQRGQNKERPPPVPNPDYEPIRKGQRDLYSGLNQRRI
T1 sequence (P09693 23-182, chain 2 of 3): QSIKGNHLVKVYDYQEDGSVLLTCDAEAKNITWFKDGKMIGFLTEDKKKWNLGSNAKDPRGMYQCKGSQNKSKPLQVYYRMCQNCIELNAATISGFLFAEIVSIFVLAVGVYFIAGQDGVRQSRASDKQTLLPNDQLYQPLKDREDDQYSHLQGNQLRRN
T1 sequence (P04234 22-171, chain 3 of 3): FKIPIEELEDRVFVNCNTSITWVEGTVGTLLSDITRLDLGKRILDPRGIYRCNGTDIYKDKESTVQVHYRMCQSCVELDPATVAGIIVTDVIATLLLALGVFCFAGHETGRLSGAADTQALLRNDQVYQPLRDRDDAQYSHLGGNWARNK

B1: VH_V2_VL_V4 (antibody, V domains shown)
VH: EVQLVESGGGLVQPGRSLRLSCAASGFTFNNYWMSWVRQAPGKGLEWVSAITKTGGSTYYPDSVKGRFTISRDNSKSTLYLQMNSLRAEDTATYYCTREYYYDPYIDYWGQGVLVTVSS
VL: QFALTQPRSVSGSLGQSVTLSCTRTTGNIGSNYVNWYQQHEGKAPKTMIYRDDKRPSGVPDRFSGSIDRSSNTASLTISGVQAEDEADYYCQSYSSGINIFGGGTKLTVL
notes: also called HV2-LV4
For the molecule B1, in experiment [1], the EC50 (read off the curve) (as a rule, the midpoint of the concentration-response curve) is about 0.05 µg/mL. In addition, in experiment [2], the EC50 (in general, the concentration needed to bring the measured effect to its halfway point) is 0.0405 µg/mL.

B2: VH_V2_VL_V2 (antibody, V domains shown)
VH: B1 VH
VL: QFALTQPRSVSGNLGSSVKISCKRTTGNIGSNYVNWYQQHEGKAPTTMIYRDDKRPDGVPDRFSGSKDRSGNTALLTINNLQTEDEADYYCQSYSSGINIFGGGTKLTVL
notes: also called HV2-LV2
In the case of B2, the binding result in experiment [3] was “no binding (tested: 10 µg/ml)”.

B3: VH_V4_VL_V1 (antibody, V domains shown)
VH: B1 VH with R16G, S35T, V37I, S49A, A50S, T93V, V113T
VL: QSALTQPRSVSGSPGQSVTISCTGTTGNIGSNYVSWYQQHPGKAPKLMIYRDDKRPSGVPDRFSGSKSGNTASLTISGLQAEDEADYYCQSYSSGINIFGGGTKLTVL
notes: also called HV4-LV1
Consider B3, for which the binding result in experiment [3] is listed as “no binding (tested: 10 µg/ml)”.

B4: C3002HC-LV4 (antibody, V domains shown)
VH: EVQLVESGGGLVQPGGSLRLSCAASGFTFNNYWMTWIRQAPGKGLEWVASITKTGGSTYYPDSVKGRFTISRDNAKNSLYLQMNSLRAEDTAVYYCTREYYYDPYIDYWGQGTMVTVSS
VL: B1 VL
As for B4, the “EC50 (read off the curve)” value in experiment [1] is about 0.05 µg/mL.

B5: VH_V4_VL_V4 (antibody, V domains shown)
VH: B4 VH with A75S, N77S, S78T, M114L
VL: B1 VL
notes: also called HV4-LV4
For B5, in experiment [1], the “EC50 (read off the curve)” value was about 0.04 µg/mL. The EC50 in experiment [4] amounted to 0.0305 µg/mL.

B6: VH_V3_VL_V1 (antibody, V domains shown)
VH: B1 VH with S49A, A50S, S75A, A88S
VL: B3 VL
notes: also called HV3-LV1
Consider B6, for which the binding result in experiment [3] is “no binding (tested: 10 µg/ml)”.

B7: C3002-2-HC-LV4 (antibody, V domains shown)
VH: B4 VH with V93T, T113V
VL: B1 VL
Turning to B7, in experiment [1], the “EC50 (read off the curve)” value is about 0.04 µg/mL.

B8: VH_V3_VL_V2 (antibody, V domains shown)
VH: B1 VH with S49A, A50S, S75A, A88S
VL: B2 VL
notes: also called HV3-LV2
In the case of B8, the binding result in experiment [3] is on record as “no binding (tested: 10 µg/ml)”.

B9: VH_V1_VL_V4 (antibody, V domains shown)
VH: B1 VH with R16G, P61A, S77N, T93V, V113T
VL: B1 VL
notes: also called HV1-LV4
With B9, in experiment [1], the “EC50 (read off the curve)” value is about 0.04 µg/mL. Further, in experiment [5], the EC50 stood at 0.0148 µg/mL.

B10: VH_V3_VL_V4 (antibody, V domains shown)
VH: B1 VH with S49A, A50S, S75A, A88S
VL: B1 VL
notes: also called HV3-LV4
For the molecule B10, the “EC50 (read off the curve)” value in experiment [1] is about 0.04 µg/mL. Also, in experiment [6], the midpoint of the response, the EC50, lay at 0.0337 µg/mL.
